This is an account of results in the supplement of paper PMC5998384.

Data set [1] concerns HeLa Kyoto. As to the kind of experiment: solubility in G1/S (NP-40 vs SDS abundance) (log2 ratio); higher = more soluble. To be noted: cell cycle stage: G1/S.
For data set [2], the system named is HeLa Kyoto. As to the kind of experiment: melting temperature (median over replicates), in situ; higher = more thermally stable.
Data set [3] concerns HeLa Kyoto. As to the kind of experiment: solubility change mitosis vs G1/S (difference of NP-40 vs SDS log2 ratios) (log2 ratio difference); higher = more soluble in mitosis.
Data set [4] concerns HeLa Kyoto. The data set is described as follows: thermal stability score vs G1/S (z-score of summed log2 fold changes over temperatures); higher = more thermally stable than in G1/S.
The mark [5] stands for this setting: cell cycle stage: early G1 (4.5 h after nocodazole release).
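Wherever melting temperature (median over replicates), in situ is given: HeLa Kyoto cells synchronized by double thymidine or nocodazole block, proteins quantified by TMT10plex mass spectrometry, three independent biological replicates.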
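Wherever solubility change mitosis vs G1/S (difference of NP-40 vs SDS log2 ratios) is given: synchronized HeLa Kyoto cells (double thymidine block for G1/S, nocodazole release for mitosis), protein amounts in NP-40 versus SDS lysates quantified by mass spectrometry, three biological replicates.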
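Wherever solubility in G1/S (NP-40 vs SDS abundance) is given: HeLa Kyoto cells arrested at G1/S by double thymidine block, proteins quantified by TMT10plex mass spectrometry in mild NP-40 versus SDS extracts, three biological replicates.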
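Wherever thermal stability score vs G1/S (z-score of summed log2 fold changes over temperatures) is given: synchronized HeLa Kyoto cells, proteins quantified by TMT10plex mass spectrometry, three biological replicates, mitosis taken 0.5 h after nocodazole release, G1/S directly after double thymidine block.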

Consider “MGGKNKKHKAPAAAVVRAAVSASRAKSAEAGIAGEAQSKKPVSRPATAAAAAAGSREPRVKQGPKIYSFNSTNDSSGPANLDKSILKVVINNKLEQRIIGVINEHKKQNNDKGMISGRLTAKKLQDLYMALQAFSFKTKDIEDAMTNTLLYGGDLHSALDWLCLNLSDDALPEGFSQEFEEQQPKSRPKFQSPQIQATISPPLQPKTKTYEEDPKSKPKKEEKNMEVNMKEWILRYAEQQNEEEKNENSKSLEEEEKFDPNERYLHLAAKLLDAKEQAATFKLEKNKQGQKEAQEKIRKFQREMETLEDHPVFNPAMKISHQQNERKKPPVATEGESALNFNLFEKSAAATEEEKDKKKEPHDVRNFDYTARSWTGKSPKQFLIDWVRKNLPKSPNPSFEKVPVGRYWKCRVRVIKSEDDVLVVCPTILTEDGMQAQHLGATLALYRLVKGQSVHQLLPPTYRDVWLEWSDAEKKREELNKMETNKPRDLFIAKLLNKLKQQQQQQQQHSENKRENSEDPEESWENLVSDEDFSALSLESANVEDLEPVRNLFRKLQSTPKYQKLLKERQQLPVFKHRDSIVETLKRHRVVVVAGETGSGKSTQVPHFLLEDLLLNEWEASKCNIVCTQPRRISAVSLANRVCDELGCENGPGGRNSLCGYQIRMESRACESTRLLYCTTGVLLRKLQEDGLLSNVSHVIVDEVHERSVQSDFLLIILKEILQKRSDLHLILMSATVDSEKFSTYFTHCPILRISGRSYPVEVFHLEDIIEETGFVLEKDSEYCQKFLEEEEEVTINVTSKAGGIKKYQEYIPVQTGAHADLNPFYQKYSSRTQHAILYMNPHKINLDLILELLAYLDKSPQFRNIEGAVLIFLPGLAHIQQLYDLLSNDRRFYSERYKVIALHSILSTQDQAAAFTLPPPGVRKIVLATNIAETGITIPDVVFVIDTGRTKENKYHESSQMSSLVETFVSKASALQRQGRAGRVRDGFCFRMYTRERFEGFMDYSVPEILRVPLEELCLHIMKCNLGSPEDFLSKALDPPQLQVISNAMNLLRKIGACELNEPKLTPLGQHLAALPVNVKIGKMLIFGAIFGCLDPVATLAAVMTEKSPFTTPIGRKDEADLAKSALAMADSDHLTIYNAYLGWKKARQEGGYRSEITYCRRNFLNRTSLLTLEDVKQELIKLVKAAGFSSSTTSTSWEGNRASQTLSFQEIALLKAVLVAGLYDNVGKIIYTKSVDVTEKLACIVETAQGKAQVHPSSVNRDLQTHGWLLYQEKIRYARVYLRETTLITPFPVLLFGGDIEVQHRERLLSIDGWIYFQAPVKIAVIFKQLRVLIDSVLRKKLENPKMSLENDKILQIITELIKTENN [DHX29]”, for which, in data set [1], the “solubility in G1/S (log2)” value is -0.444. For the same sequence, the melting temperature in data set [2] (cell cycle stage: G1/S) was determined as 51.7 °C; in data set [2] (cell cycle stage: mitosis), 50.7 °C. In addition, the “solubility change mitosis (log2)” value in data set [3] was 0.00585. For the same sequence, the thermal stability score is -0.474 in data set [4] (setting [5]) and -0.738 in data set [4] (cell cycle stage: mitosis).
In the case of “MDRTCEERPAEDGSDEEDPDSMEAPTRIRDTPEDIVLEAPASGLAFHPARDLLAAGDVDGDVFVFSYSCQEGETKELWSSGHHLKACRAVAFSEDGQKLITVSKDKAIHVLDVEQGQLERRVSKAHGAPINSLLLVDENVLATGDDTGGICLWDQRKEGPLMDMRQHEEYIADMALDPAKKLLLTASGDGCLGIFNIKRRRFELLSEPQSGDLTSVTLMKWGKKVACGSSEGTIYLFNWNGFGATSDRFALRAESIDCMVPVTESLLCTGSTDGVIRAVNILPNRVVGSVGQHTGEPVEELALSHCGRFLASSGHDQRLKFWDMAQLRAVVVDDYRRRKKKGGPLRALSSKTWSTDDFFAGLREEGEDSMAQEEKEETGDDSD [WDR55]”, the “solubility in G1/S (log2)” value in data set [1] was -0.0916. For the same sequence, the melting temperature in data set [2] (cell cycle stage: G1/S) worked out at 51.3 °C; in data set [2] (cell cycle stage: mitosis), 51.4 °C. Also, the “solubility change mitosis (log2)” value in data set [3] is -0.0465. Also, the thermal stability score in data set [4] (setting [5]) was -0.454; in data set [4] (cell cycle stage: mitosis), -1.73.
For “MAQPGPASQPDVSLQQRVAELEKINAEFLRAQQQLEQEFNQKRAKFKELYLAKEEDLKRQNAVLQAAQDDLGHLRTQLWEAQAEMENIKAIATVSENTKQEAIDEVKRQWREEVASLQAVMKETVRDYEHQFHLRLEQERTQWAQYRESAEREIADLRRRLSEGQEEENLENEMKKAQEDAEKLRSVVMPMEKEIAALKDKLTEAEDKIKELEASKVKELNHYLEAEKSCRTDLEMYVAVLNTQKSVLQEDAEKLRKELHEVCHLLEQERQQHNQLKHTWQKANDQFLESQRLLMRDMQRMEIVLTSEQLRQVEELKKKDQEDDEQQRLNKRKDHKKADVEEEIKIPVVCALTQEESSAQLSNEEEHLDSTRGSVHSLDAGLLLPSGDPFSKSDNDMFKDGLRRAQSTDSLGTSGSLQSKALGYNYKAKSAGNLDESDFGPLVGADSVSENFDTASLGSLQMPSGFMLTKDQERAIKAMTPEQEETASLLSSVTQGMESAYVSPSGYRLVSETEWNLLQKEVHNAGNKLGRRCDMCSNYEKQLQGIQIQEAETRDQVKKLQLMLRQANDQLEKTMKDKQELEDFIKQSSEDSSHQISALVLRAQASEILLEELQQGLSQAKRDVQEQMAVLMQSREQVSEELVRLQKDNDSLQGKHSLHVSLQQAEDFILPDTTEALRELVLKYREDIINVRTAADHVEEKLKAEILFLKEQIQAEQCLKENLEETLQLEIENCKEEIASISSLKAELERIKVEKGQLESTLREKSQQLESLQEIKISLEEQLKKETAAKATVEQLMFEEKNKAQRLQTELDVSEQVQRDFVKLSQTLQVQLERIRQADSLERIRAILNDTKLTDINQLPET [RABEP1]”, the “solubility in G1/S (log2)” value in data set [1] came out at 0.412. Also, the figures for the melting temperature in data set [2] (cell cycle stage: G1/S) and in data set [2] (cell cycle stage: mitosis) were 51 °C and 50.4 °C, respectively. Further, in data set [3], the “solubility change mitosis (log2)” value is -0.0841. Besides, the thermal stability score in data set [4] (setting [5]) was -1; in data set [4] (cell cycle stage: mitosis), -0.882.
Turning to “MTTQQIDLQGPGPWGFRLVGGKDFEQPLAISRVTPGSKAALANLCIGDVITAIDGENTSNMTHLEAQNRIKGCTDNLTLTVARSEHKVWSPLVTEEGKRHPYKMNLASEPQEVLHIGSAHNRSAMPFTASPASSTTARVITNQYNNPAGLYSSENISNFNNALESKTAASGVEANSRPLDHAQPPSSLVIDKESEVYKMLQEKQELNEPPKQSTSFLVLQEILESEEKGDPNKPSGFRSVKAPVTKVAASIGNAQKLPMCDKCGTGIVGVFVKLRDRHRHPECYVCTDCGTNLKQKGHFFVEDQIYCEKHARERVTPPEGYEVVTVFPK [PDLIM1]”, the “solubility in G1/S (log2)” value in data set [1] is 0.455. Also, the melting temperature in data set [2] (cell cycle stage: G1/S) is 55.6 °C; in data set [2] (cell cycle stage: mitosis) it was 56 °C. Besides, in data set [3], the “solubility change mitosis (log2)” value worked out at 0.147. Further, the thermal stability score in data set [4] (setting [5]) is -1.51; in data set [4] (cell cycle stage: mitosis), -0.369.
With “MVFPAKRFCLVPSMEGVRWAFSCGTWLPSRAEWLLAVRSIQPEEKERIGQFVFARDAKAAMAGRLMIRKLVAEKLNIPWNHIRLQRTAKGKPVLAKDSSNPYPNFNFNISHQGDYAVLAAEPELQVGIDIMKTSFPGRGSIPEFFHIMKRKFTNKEWETIRSFKDEWTQLDMFYRNWALKESFIKAIGVGLGFELQRLEFDLSPLNLDIGQVYKETRLFLDGEEEKEWAFEESKIDEHHFVAVALRKPDGSRHQDVPSQDDSKPTQRQFTILNFNDLMSSAVPMTPEDPSFWDCFCFTEEIPIRNGTKS [AASDHPPT]”, in data set [1], the “solubility in G1/S (log2)” value was 0.0817. Further, the melting temperature came out at 52.3 °C in data set [2] (cell cycle stage: G1/S) and 52.4 °C in data set [2] (cell cycle stage: mitosis). Moreover, in data set [3], the “solubility change mitosis (log2)” value was -0.124. Moreover, the thermal stability score in data set [4] (setting [5]) is 0.145; in data set [4] (cell cycle stage: mitosis), -0.453.
Consider “MEPAVSEPMRDQVARTHLTEDTPKVNADIEKVNQNQAKRCTVIGGSGFLGQHMVEQLLARGYAVNVFDIQQGFDNPQVRFFLGDLCSRQDLYPALKGVNTVFHCASPPPSSNNKELFYRVNYIGTKNVIETCKEAGVQKLILTSSASVIFEGVDIKNGTEDLPYAMKPIDYYTETKILQERAVLGANDPEKNFLTTAIRPHGIFGPRDPQLVPILIEAARNGKMKFVIGNGKNLVDFTFVENVVHGHILAAEQLSRDSTLGGKAFHITNDEPIPFWTFLSRILTGLNYEAPKYHIPYWVAYYLALLLSLLVMVISPVIQLQPTFTPMRVALAGTFHYYSCERAKKAMGYQPLVTMDDAMERTVQSFRHLRRVK [NSDHL]”, for which, in data set [1], the “solubility in G1/S (log2)” value was -0.0523. The results for the melting temperature in data set [2] (cell cycle stage: G1/S) and in data set [2] (cell cycle stage: mitosis) were 53.1 °C and 53 °C, respectively. Moreover, the “solubility change mitosis (log2)” value in data set [3] is -0.127. Moreover, the thermal stability score in data set [4] (setting [5]) came out at 1.89; in data set [4] (cell cycle stage: mitosis) it was 1.38.
“MAFQKAVKGTILVGGGALATVLGLSQFAHYRRKQMNLAYVKAADCISEPVNREPPSREAQLLTLQNTSEFDILVIGGGATGSGCALDAVTRGLKTALVERDDFSSGTSSRSTKLIHGGVRYLQKAIMKLDIEQYRMVKEALHERANLLEIAPHLSAPLPIMLPVYKWWQLPYYWVGIKLYDLVAGSNCLKSSYVLSKSRALEHFPMLQKDKLVGAIVYYDGQHNDARMNLAIALTAARYGAATANYMEVVSLLKKTDPQTGKVRVSGARCKDVLTGQEFDVRAKCVINATGPFTDSVRKMDDKDAAAICQPSAGVHIVMPGYYSPESMGLLDPATSDGRVIFFLPWQKMTIAGTTDTPTDVTHHPIPSEEDINFILNEVRNYLSCDVEVRRGDVLAAWSGIRPLVTDPKSADTQSISRNHVVDISESGLITIAGGKWTTYRSMAEDTINAAVKTHNLKAGPSRTVGLFLQGGKDWSPTLYIRLVQDYGLESEVAQHLAATYGDKAFEVAKMASVTGKRWPIVGVRLVSEFPYIEAEVKYGIKEYACTAVDMISRRTRLAFLNVQAAEEALPRIVELMGRELNWDDYKKQEQLETARKFLYYEMGYKSRSEQLTDRSEISLLPSDIDRYKKRFHKFDADQKGFITIVDVQRVLESINVQMDENTLHEILNEVDLNKNGQVELNEFLQLMSAIQKGRVSGSRLAILMKTAEENLDRRVPIPVDRSCGGL [GPD2]”: the “solubility in G1/S (log2)” value in data set [1] was determined as 0.104. The melting temperature in data set [2] (cell cycle stage: G1/S) was determined as 59.2 °C; in data set [2] (cell cycle stage: mitosis), 59 °C. For the same sequence, the “solubility change mitosis (log2)” value in data set [3] was -0.0945. In addition, the thermal stability score in data set [4] (setting [5]) was -2.62; in data set [4] (cell cycle stage: mitosis), -2.93.
